Tests used:
TLR4 [1] = target: T1, TLR4 (Homo sapiens, UniProt O00206+Q9Y6Y9); conditions: positive control; stated as known; cited from earlier work
T1 construct: alginate cultures of human chondrocytes from healthy volunteers were supplied by Articular Engineering, LLC; host or cells: primary human chondrocytes in alginate culture (healthy volunteers; osteoarthritis patients)

TLR4 [2] = target: T1, TLR4; test: 35S incorporation into S-GAG in alginate cultures of human chondrocytes from healthy volunteers; type: cell-based
Description: For these experiments, alginate cultures of human chondrocytes from healthy volunteers were supplied by Articular Engineering, LLC (Northbrook, Ill.) and were maintained as directed by the supplier. “Control” chondrocytes were untreated. “LPS” treated chondrocytes were treated with LPS at a concentration of 1 μg/ml in the media for three days starting at Day 2. “LPS+polymixin B” treated chondrocytes were treated for 1 hour with the […] polymixin B, which is a TLR4 antagonist, at a concentration of 20 μg/ml followed by treatment with the TLR4 receptor agonist LPS at a concentration of 1 μg/ml in the media for three days starting at Day 2. “LPS+TLR4-ECD” treated chondrocytes were treated starting at Day 0 with the TLR4 antagonist TLR4-ECD at a concentration in the media of 50 μg/ml followed by treatment with LPS at a concentration of 1 μg/ml in the media for three days starting at Day 2. TLR4-ECD is a TLR4 receptor antagonist comprising the extracellular domain of hTLR4A and the Fc domain of an IgG1 isotype antibody. TLR4-ECD has the amino acid sequence shown in SEQ ID NO: 4 and is encoded by the cDNA having the nucleic acid sequence shown in SEQ ID NO: 3. […] On Day 5 alginate bead chondrocyte cell cultures were ^35S labelled overnight and ^35S incorporation into S-GAG (sulfated glycosaminoglycan) was then determined as described by Bobacz et al. 56 Arthritis. […]

TLR4 [3] = target: T1, TLR4; test: 35S incorporation into S-GAG in alginate cultures of human chondrocytes from osteoarthritis patients; type: cell-based
Description: For these experiments, alginate cultures of human chondrocytes from healthy volunteers were supplied by Articular Engineering, LLC (Northbrook, Ill.) and were maintained as directed by the supplier. “Control” chondrocytes were untreated. “LPS” treated chondrocytes were treated with LPS at a concentration of 1 μg/ml in the media for three days starting at Day 2. “LPS+polymixin B” treated chondrocytes were treated for 1 hour with the […] polymixin B, which is a TLR4 antagonist, at a concentration of 20 μg/ml followed by treatment with the TLR4 receptor agonist LPS at a concentration of 1 μg/ml in the media for three days starting at Day 2. […] On Day 5 alginate bead chondrocyte cell cultures were ^35S labelled overnight and ^35S incorporation into S-GAG (sulfated glycosaminoglycan) was then determined as described by Bobacz et al. 56 Arthritis. […]
For these experiments, alginate cultures of human chondrocytes from osteoarthritis patients were supplied by Articular Engineering, LLC (Northbrook, Ill.) and were maintained as directed by the supplier. […] At Day 5 alginate bead chondrocyte cell cultures were ^35S labelled overnight and ^35S incorporation into S-GAG (sulfated glycosaminoglycan) was then determined as described by Bobacz et al. 56 Arthritis. […]

T1 sequence (O00206 24-839): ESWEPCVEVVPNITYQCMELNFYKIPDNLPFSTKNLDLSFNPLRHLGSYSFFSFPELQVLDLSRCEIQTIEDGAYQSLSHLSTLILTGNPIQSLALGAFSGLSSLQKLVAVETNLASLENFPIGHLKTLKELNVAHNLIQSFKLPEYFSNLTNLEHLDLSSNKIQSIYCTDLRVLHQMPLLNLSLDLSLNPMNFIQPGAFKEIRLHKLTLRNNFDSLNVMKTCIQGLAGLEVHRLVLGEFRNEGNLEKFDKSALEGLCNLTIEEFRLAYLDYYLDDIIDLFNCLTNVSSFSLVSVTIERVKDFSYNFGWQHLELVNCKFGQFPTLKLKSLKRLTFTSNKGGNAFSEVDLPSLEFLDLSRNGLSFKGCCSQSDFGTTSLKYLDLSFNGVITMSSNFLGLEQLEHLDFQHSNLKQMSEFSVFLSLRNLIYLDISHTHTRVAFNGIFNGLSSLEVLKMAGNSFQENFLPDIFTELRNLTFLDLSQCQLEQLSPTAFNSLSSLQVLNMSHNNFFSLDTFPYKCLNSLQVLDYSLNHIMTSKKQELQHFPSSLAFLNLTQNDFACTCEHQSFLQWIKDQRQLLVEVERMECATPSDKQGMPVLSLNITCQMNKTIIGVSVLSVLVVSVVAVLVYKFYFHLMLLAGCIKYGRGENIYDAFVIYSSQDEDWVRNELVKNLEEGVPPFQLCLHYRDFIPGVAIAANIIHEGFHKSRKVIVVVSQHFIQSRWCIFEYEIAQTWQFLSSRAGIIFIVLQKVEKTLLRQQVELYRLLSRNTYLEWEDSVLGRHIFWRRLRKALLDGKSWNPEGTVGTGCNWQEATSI
T1 sequence (Q9Y6Y9 17-160 limits assumed): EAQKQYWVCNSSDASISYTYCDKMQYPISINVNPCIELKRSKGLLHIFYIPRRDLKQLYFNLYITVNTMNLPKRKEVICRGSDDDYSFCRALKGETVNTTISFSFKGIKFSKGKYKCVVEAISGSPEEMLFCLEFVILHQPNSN

Question: For “IGF1: Insulin-like Growth Factor 1, used as a positive control”, which “sGAG synthesis by human chondrocytes” value (TLR4 [1]) is on record?
Answer: Its value is “stimulate sGAG synthesis”.

Question: For “hTLR4-ECD: TLR4 receptor antagonist comprising the extracellular domain of hTLR4A and the Fc domain of an IgG1 isotype antibody; preparations contained approximately 25% MD2”, which S-GAG synthesis (TLR4 [2]; hTLR4-ECD 50 μg/ml from Day 0 + LPS 1 μg/ml from Day 2, relative to LPS alone (FIG. 18)) is on record?
Answer: The S-GAG synthesis was “increased S-GAG synthesis relative to chondrocytes treated with LPS alone”.

Question: And the S-GAG synthesis (TLR4 [2]; hTLR4-ECD alone 50 μg/ml from Day 0, relative to LPS alone (FIG. 18))?
Answer: Its S-GAG synthesis is “increased S-GAG synthesis relative to chondrocytes treated with LPS alone”.

Question: What about the S-GAG synthesis (TLR4 [3]; hTLR4-ECD 50 μg/ml from Day 0 + LPS 1 μg/ml from Day 2, relative to LPS alone (FIG. 19)) of the same substance?
Answer: Its S-GAG synthesis is “increased S-GAG synthesis relative to chondrocytes from osteoarthritis patients treated with LPS alone”.

Question: What about the S-GAG synthesis (TLR4 [3]; hTLR4-ECD alone 50 μg/ml from Day 0, relative to LPS alone (FIG. 19)) of the same substance?
Answer: Its S-GAG synthesis is “increased S-GAG synthesis relative to chondrocytes from osteoarthritis patients treated with LPS alone”.

— patent US20090136509A1, “Use of Toll-Like Receptor 4 Antagonists for the Treatment or Prevention of Osteoarthritic Conditions” (priority 2007, published 2009)
